Reference: article PMC4157633 (Laboratory investigation; a journal of technical methods …, 2014)

B1: human carcinoembryonic antigen (hCEA) protein, purified (natural protein, UniProt P06731 35-685, looked up)
chain: KLTIESTPFNVAEGKEVLLLVHNLPQHLFGYSWYKGERVDGNRQIIGYVIGTQQATPGPAYSGREIIYPNASLLIQNIIQNDTGFYTLHVIKSDLVNEEATGQFRVYPELPKPSISSNNSKPVEDKDAVAFTCEPETQDATYLWWVNNQSLPVSPRLQLSNGNRTLTLFNVTRNDTASYKCETQNPVSARRSDSVILNVLYGPDAPTISPLNTSYRSGENLNLSCHAASNPPAQYSWFVNGTFQQSTQELFIPNITVNNSGSYTCQAHNSDTGLNRTTVTTITVYAEPPKPFITSNNSNPVEDEDAVALTCEPEIQNTTYLWWVNNQSLPVSPRLQLSNDNRTLTLLSVTRNDVGPYECGIQNELSVDHSDPVILNVLYGPDDPTISPSYTYYRPGVNLSLSCHAASNPPAQYSWLIDGNIQQHTQELFISNITEKNSGLYTCQANNSASGHSRTTVKTITVSAELPKPSISSNNSKPVEDKDAVAFTCEPEAQNTTYLWWVNGQSLPVSPRLQLSNGNRTLTLFNVTRNDARAYVCGIQNSVSANRSDPVTLDVLYGPDTPIISPPDSSYLSGANLNLSCHSASNPSPQYSWRINGIPQQHTQVLFIAKITPNNNGTYACFVSNLATGRNNSIVKSITVSASGTSPGLSA

Experiments:
[1] = molecular target: B1; assay: ELISA
[2] = molecular target: anti-EGFR VHH122-fiber-fibritin chimera displayed on the AdVHH122Luc vector (human adenovirus serotype 5 | …); assay: ELISA

| Binder | EC50 [1] | binding result [2] |
| --- | --- | --- |
| anti-hCEA VHH JJB-B5, thioredoxin fusion protein (VHH) VHH: QVQLVETGGGLVQPGGSLRPSCTASGSIFSIYAMGWYRQASGKQRELVALITRDEVFNYADSVKGRFTISRDNAKDTVYLQMNSLKPEDTAVYYCWVETVNDHYNSGVEDYWGQGTQVTVSS | ~50 nM | – |
| anti-hCEA VHH JJB-D1, thioredoxin fusion protein (VHH) VHH: QVQLVESGGLVQAGGSLRPSCAASGSIFLQNAMGWYRQVPGKQRELVAAITSVDSTNYADSVKGRFTISRDNAKNTVYLQMNSLKPEDTAVYYCNAPWNSDYHWGKGTLVTVSS | ~1 nM | – |
| anti-hCEA VHH JJB-B2, thioredoxin fusion protein (VHH) VHH: QVQLVETGGGLVQPGGSLRLSCAASESIFSTYAMGWYRQAPGKQRELVAAITTNDIANYADSVKGRFTISRDNAKNTVYLQMNSLNPEDTAVYYCNAIFPPYNYWGQGTQVTVSS | ~0.2 nM | – |
| anti-hCEA VHH JJB-A3, thioredoxin fusion protein (VHH) VHH: QVQLVETGGGLVQPGGSLRLSCAASGRISDINAMGWYRQAPGKQRELVAAITSVGSNYVDSVKGRFTISKDNAKNTVYLQMYSLNPEDTAVYYCNTQCGTWLVCDGRDQWGKGTLVTVSS | ~0.15 nM | – |
| B1 | – | no binding |
